Reference: US20050106160A1
Where “and” joins values, the source holds several entries; their conditions need not be identical. Equal entries are not always repeated. Where two headings read alike, the source gives them in different places.

What was measured:
[1] = target: cell surface associated CCR5 (CF2Th-CCR5 cells) (UniProt P51681)
[2] = target: cell surface associated CCR5 (CF2Th-CCR5 cells) (UniProt P51681); test: flow cytometry on CF2Th-CCR5 cells, anti-CCR5 mAb 5C7, no ligand, background subtracted
[3] = target: cell surface associated CCR5 (CF2Th-CCR5 cells) (UniProt P51681); test: flow cytometry on CF2Th-CCR5 cells, anti-CCR5 mAb 5C7, cells preincubated with gp140 + sCD4
[4] = target: cell surface associated CCR5 (CF2Th-CCR5 cells) (UniProt P51681); test: flow cytometry on CF2Th-CCR5 cells, anti-CCR5 mAb 5C7, cells preincubated with sCD4 (1 µg/ml)

UniProt P51681, sequence (P51681 whole entry): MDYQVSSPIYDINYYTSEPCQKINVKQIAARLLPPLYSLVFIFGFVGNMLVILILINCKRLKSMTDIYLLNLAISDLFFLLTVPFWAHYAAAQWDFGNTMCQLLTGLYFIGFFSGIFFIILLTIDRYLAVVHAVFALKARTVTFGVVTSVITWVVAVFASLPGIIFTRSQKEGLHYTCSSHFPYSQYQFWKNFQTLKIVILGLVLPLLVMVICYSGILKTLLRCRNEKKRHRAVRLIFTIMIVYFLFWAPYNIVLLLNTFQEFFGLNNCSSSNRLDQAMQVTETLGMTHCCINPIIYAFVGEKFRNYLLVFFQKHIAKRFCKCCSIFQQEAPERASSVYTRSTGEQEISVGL

two-domain soluble CD4 (sCD4) (from UniProt P01730 26-208) (receptor)
geometric mean of fluorescence intensity (arbitrary units) [1]: 20

anti-CCR5 mAb 5C7 (antibody)
geometric mean of fluorescence intensity (arbitrary units) [1]: 1200 and 1100
geometric mean of fluorescence intensity (arbitrary units) [2]: 1100
geometric mean of fluorescence intensity (arbitrary units) [3]: 370
geometric mean of fluorescence intensity (arbitrary units) [4]: 1300
